Results reported in patent publication US20120135912A1 (PERSEID THERAPEUTICS, published 2012).
Numbering of substitutions follows the chain as printed. Numbers in names are those of the source.

B1: 2D-VCAM-1 variant Clone 46 (ligand)
chain: FKIETTPESRYLAQIGDSVSLTCSTTGCESPFFSWRPQLDAPLNGKVTNEGTTSTLTMNPVSFGNEHSYLCTATCESRKLEKGIQVEIYSFPKDPEIHLSGPLEAGKPITVKCSVADVYPFDRLEIDLLKGDHLMKSQEFLEDADRKSLETKSLEVTFTPVIEDIGKVLVCRAKLHIDEMDSVPTVRQAVKELQVYISP
notes: also called Clone 046; not shown: His tag
B2: 2D-VCAM-1 variant Clone 47 (ligand)
chain: B1 chain with Q38L, A41S
notes: also called Clone 047; not shown: His tag
B3: 2D-VCAM-1 variant Clone 146 (ligand, not shown: small tags and cut ends)
chain: B1 chain with F32L, S34F, Q38L, A41S, T74R, K79S
B4: Q38L-2D-VCAM-1 (ligand)
chain: B1 chain with P37T, Q38L, L39I, A41S
notes: also called Q38L 2D-VCAM-1 polypeptide; not shown: His tag
B5: 2D-VCAM-1 variant Clone 59 (ligand)
chain: B1 chain with Q38L, A41S, L141F, D145A, R146W
notes: also called Clone 059; not shown: His tag

Target: T1, human LPAM-1-Fc (alpha4-Fc/beta7-Fc heterodimer) (human)
T1 construct: Soluble heterodimer from CHO cells, Protein A purified
Assay: SPR (BIACORE), LPAM-1-Fc captured by anti-human IgG, 1 mM MnCl2, 1:1 Langmuir
Description: (§1) The kinetic 2D-VCAM-1 assay measures binding kinetics of a dimeric ligand (e.g., VLA-Fc fusion protein or LPAM-1-Fc fusion protein) coated to sensor chips and monomeric analyte (e.g., 2D-VCAM-1 variant polypeptides) in the mobile phase. Goat anti-human IgG antibody (Jackson ImmunoResearch, Catalog No. 105-005-098) was immobilized on CM-5 sensor chips (GE Healthcare, Catalog No. BR-1000-14) according to the manufacturer's protocol. Antibody was diluted to 30 μg/ml in immobilization buffer (10 mM sodium acetate, pH 5.0 (GE Healthcare, Catalog No. BR-1003-51)). […] Un-reacted sites were quenched with 35 μl of 1 M ethanolamine-HCl pH 8.5 (GE Healthcare, Catalog No. BR-1000-50). This procedure typically yielded 15,000 response units (RU) of coupled antibody. VLA4-Fc or LPAM-1-Fc, prepared as described in Examples 3 and 4, respectively, were bound to antibody-coated sensor chips by injection of 20 μl of ligand solution (20 μg/ml protein in HBS-P-Mn buffer at a flow rate of 10 μl/min). Ligand capture levels were typically 200-300 RU. 2D-VCAM-1 variant polypeptides were diluted in HBS-P-Mn and flowed over ligand-coated sensor chips for 2 min at 30 μl/min, followed by 5 min incubation with in HBS-P-Mn containing no protein at the same flow rate. For 2D-VCAM-1 variant polypeptides having very slow dissociation rates from VLA4-Fc or LPAM-1-Fc, kinetic assays were also conducted using longer dissociation times (e.g., 20 min). Rmax signal levels for 2D-VCAM-1 variant polypeptides ranged from approximately 5-25 RU. Regeneration between cycles was performed by 200 sec incubation with 10 mM glycine buffer (pH 1.7) at 50 μl/min. New chips were subjected to 4-5 cycles of capture/binding/regeneration prior to use in actual experiments. Data from a reference cell containing goat anti-human IgG capture antibody alone was subtracted from data obtained from flow cells containing captured VLA4-Fc or LPAM-1-Fc. Typically, 8 dilutions of 2D-VCAM-1 variant polypeptides ranging from 150 nM to 0.069 nM were analyzed against a blank reference (HBS-P-Mn buffer alone).

T1 sequence (chain, as listed by the source limits assumed, chain 1 of 2): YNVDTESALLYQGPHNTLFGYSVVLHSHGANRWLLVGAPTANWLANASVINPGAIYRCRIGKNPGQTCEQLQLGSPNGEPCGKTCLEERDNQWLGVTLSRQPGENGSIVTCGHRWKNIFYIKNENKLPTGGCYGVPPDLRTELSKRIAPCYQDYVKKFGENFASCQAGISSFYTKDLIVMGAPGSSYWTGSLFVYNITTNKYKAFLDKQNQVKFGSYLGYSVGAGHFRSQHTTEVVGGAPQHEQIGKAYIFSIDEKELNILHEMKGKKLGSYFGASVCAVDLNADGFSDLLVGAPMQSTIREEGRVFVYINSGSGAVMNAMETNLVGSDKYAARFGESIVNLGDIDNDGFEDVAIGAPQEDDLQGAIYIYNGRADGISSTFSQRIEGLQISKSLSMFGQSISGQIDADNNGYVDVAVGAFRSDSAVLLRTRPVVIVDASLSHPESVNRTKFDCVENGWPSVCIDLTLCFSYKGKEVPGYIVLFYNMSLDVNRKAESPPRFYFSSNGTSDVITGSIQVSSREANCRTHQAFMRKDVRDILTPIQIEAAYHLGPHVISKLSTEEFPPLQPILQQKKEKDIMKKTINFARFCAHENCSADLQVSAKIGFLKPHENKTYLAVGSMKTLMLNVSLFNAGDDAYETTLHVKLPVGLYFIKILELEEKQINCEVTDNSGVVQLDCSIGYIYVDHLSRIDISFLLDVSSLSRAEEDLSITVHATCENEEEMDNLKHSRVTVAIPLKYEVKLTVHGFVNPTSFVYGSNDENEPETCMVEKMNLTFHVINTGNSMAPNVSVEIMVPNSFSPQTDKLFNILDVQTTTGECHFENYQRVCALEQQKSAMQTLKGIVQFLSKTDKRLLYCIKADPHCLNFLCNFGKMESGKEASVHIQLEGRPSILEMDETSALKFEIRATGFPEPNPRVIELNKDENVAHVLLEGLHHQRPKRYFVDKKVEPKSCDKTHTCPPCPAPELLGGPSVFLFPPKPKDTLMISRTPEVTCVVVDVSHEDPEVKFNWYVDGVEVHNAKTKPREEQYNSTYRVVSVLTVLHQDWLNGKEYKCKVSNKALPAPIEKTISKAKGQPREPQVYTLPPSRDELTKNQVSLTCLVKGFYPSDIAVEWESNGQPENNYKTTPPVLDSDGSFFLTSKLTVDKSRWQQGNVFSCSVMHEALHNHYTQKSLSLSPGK
T1 sequence (chain, as listed by the source limits assumed, chain 2 of 2): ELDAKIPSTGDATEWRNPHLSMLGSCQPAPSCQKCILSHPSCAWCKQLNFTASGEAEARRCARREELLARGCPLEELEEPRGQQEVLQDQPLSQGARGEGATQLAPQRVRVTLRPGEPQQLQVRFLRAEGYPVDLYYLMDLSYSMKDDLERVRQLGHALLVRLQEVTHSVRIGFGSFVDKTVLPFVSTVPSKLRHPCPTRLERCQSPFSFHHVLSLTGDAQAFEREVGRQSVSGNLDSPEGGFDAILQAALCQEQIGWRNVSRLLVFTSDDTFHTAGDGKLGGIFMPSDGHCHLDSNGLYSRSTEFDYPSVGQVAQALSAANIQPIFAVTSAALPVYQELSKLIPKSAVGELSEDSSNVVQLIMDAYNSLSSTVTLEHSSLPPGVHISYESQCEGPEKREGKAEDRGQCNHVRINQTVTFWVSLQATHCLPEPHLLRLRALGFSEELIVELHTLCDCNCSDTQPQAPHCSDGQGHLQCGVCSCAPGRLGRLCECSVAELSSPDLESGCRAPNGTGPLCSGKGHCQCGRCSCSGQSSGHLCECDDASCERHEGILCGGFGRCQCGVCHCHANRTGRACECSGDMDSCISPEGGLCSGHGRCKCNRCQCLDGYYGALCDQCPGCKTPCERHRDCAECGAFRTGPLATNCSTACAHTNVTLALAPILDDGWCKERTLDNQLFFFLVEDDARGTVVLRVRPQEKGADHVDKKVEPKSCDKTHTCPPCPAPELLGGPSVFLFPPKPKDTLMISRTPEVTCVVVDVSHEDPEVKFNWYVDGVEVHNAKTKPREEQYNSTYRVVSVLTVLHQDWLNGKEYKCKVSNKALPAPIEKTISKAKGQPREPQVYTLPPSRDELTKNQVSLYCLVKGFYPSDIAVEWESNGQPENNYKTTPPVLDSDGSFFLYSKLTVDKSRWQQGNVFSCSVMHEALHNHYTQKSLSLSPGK

In order of rising Kd:
1. B5  0.405 nM
2. B3  0.439 nM
3. B2  6.54 nM
4. B4  20.5 nM
5. B1  27.2 nM

In order of falling “binding affinity for LPAM-1-Fc relative to human 2D-VCAM-1” value:
1. B5  612 fold
2. B3  565 fold
3. B2  38 fold
4. B4  12 fold
5. B1  9 fold

Target: T2, human VLA4-Fc (alpha4-Fc/beta1-Fc heterodimer) (human)
T2 construct: Soluble heterodimer from CHO cells, Protein A purified; also called VLA-Fc
Assay: SPR (BIACORE), retest with new polypeptide preparations and new VLA4-Fc
Description: as §1

T2 sequence (chain, as listed by the source limits assumed, form in doubt, chain 1 of 2): as the sequence (chain, as listed by the source limits assumed, chain 1 of 2) above
T2 sequence (chain, as listed by the source limits assumed, form in doubt, chain 2 of 2): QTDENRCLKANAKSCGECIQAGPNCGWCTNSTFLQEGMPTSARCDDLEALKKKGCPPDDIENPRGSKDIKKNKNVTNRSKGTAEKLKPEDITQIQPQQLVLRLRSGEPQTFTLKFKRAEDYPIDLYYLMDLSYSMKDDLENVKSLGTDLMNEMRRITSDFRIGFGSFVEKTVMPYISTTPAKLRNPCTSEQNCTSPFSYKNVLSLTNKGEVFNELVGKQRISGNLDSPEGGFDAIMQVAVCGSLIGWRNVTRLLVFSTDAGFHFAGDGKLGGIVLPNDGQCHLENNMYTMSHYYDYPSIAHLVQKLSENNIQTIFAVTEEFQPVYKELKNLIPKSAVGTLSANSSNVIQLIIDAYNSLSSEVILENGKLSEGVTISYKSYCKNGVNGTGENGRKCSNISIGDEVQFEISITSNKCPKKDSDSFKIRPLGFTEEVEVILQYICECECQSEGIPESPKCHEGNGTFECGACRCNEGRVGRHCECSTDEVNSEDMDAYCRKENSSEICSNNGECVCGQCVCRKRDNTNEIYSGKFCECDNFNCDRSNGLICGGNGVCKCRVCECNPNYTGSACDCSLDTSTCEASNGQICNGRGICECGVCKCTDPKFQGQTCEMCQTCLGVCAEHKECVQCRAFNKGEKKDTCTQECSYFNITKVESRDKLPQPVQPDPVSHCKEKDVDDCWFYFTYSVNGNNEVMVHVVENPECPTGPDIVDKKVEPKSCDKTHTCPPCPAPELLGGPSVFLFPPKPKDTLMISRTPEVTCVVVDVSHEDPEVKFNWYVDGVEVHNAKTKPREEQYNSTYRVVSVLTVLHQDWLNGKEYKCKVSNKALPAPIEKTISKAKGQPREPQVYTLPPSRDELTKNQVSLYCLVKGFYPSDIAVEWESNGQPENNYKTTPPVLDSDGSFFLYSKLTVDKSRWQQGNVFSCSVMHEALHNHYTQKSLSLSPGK

In order of falling Kd:
1. B1  1.95 nM
2. B2  0.68 nM
3. B5  0.095 nM

Target: T2, human VLA4-Fc (alpha4-Fc/beta1-Fc …)
Assay: ELISA, VLA4-Fc coated, 1 mM MnCl2; from EC50 values
Description: The relative binding affinities of various 2D-VCAM-1 variants to immobilized VLA4-Fc (α4-β1-Fc) heterodimer, relative to a control protein (e.g., Q38L-2D-VCAM-1 or to human 2D-VCAM-1), were deter using a solid-phase ELISA assay. MAXISORP™ ELISA plates (NUNC) were coated overnight at 4° C. with 50 ul VLA4-Fc heterodimer, 2 ug/ml in TBS-M (TBS (25 mM Tris-HCl pH 7.5, 150 mM NaCl) with 1 mM MnCl2), washed with TBS-T (TBS with 0.05% TWEEN-20), blocked with 200 ul 3% milk in TBS-M for 1 h at room temperature, and washed again with TBS-T. A four-fold dilution series of the purified 2D-VCAM variants to be assayed was made in COSTAR U-bottom plates in TBS-TMC (TBS with 0.05% Tween-20, 1 mM MnCl2, and 1% casein; Sigma) with a starting concentration of 8.2 uM (200 ug/ml). The dilution series was transferred into the ELISA plate which was incubated at room temperature for 2 h and subsequently washed with TBS-T. Bound 2D-VCAM protein was detected by incubation with 0.5 ug/ml of biotinylated anti-human VCAM antibody (R&D Systems, Catalog No. BAF809) in TBS-TMC for 1 h at room temperature followed by a TBS-MT (TBS plus 1 mM MnCl2 and 0.02% TWEEN-20) wash and subsequent incubation with 1:2000 dilution of streptavidin-HRP (BD Biosciences, Catalog No. 554066) in TBS-TMC for 30 min at room temperature. […] Typical development times ranged from […] and development was stopped by addition of 50 ul 2M H₂SO₄ (EM, Catalog No. SX1244-75). […] Fold-improvement in binding was calculated relative to a control protein (e.g., Q38L-2D-VCAM-1 or human 2D-VCAM-1) assayed on the same plate.

In order of falling “fold-improvement in binding relative to Q38L-2D-VCAM-1” value:
1. B5  34 fold
2. B1  21 fold
3. B2  16 fold
4. B4  1 fold

In order of falling “fold-improvement in binding relative to human 2D-VCAM-1” value:
1. B5  272 fold
2. B1  172 fold
3. B2  128 fold
4. B4  8 fold

Target: T2, human VLA4-Fc (alpha4-Fc/beta1-Fc …)
Assay: SPR (BIACORE), VLA4-Fc captured by anti-human IgG, 1 mM MnCl2, 1:1 Langmuir
Description: as §1

In order of falling Kd:
1. B4  1.87 nM
2. B2  0.148 nM
3. B1  0.123 nM
4. B5  0.0501 nM

In order of falling “binding affinity for VLA4-Fc relative to human 2D-VCAM-1” value:
1. B5  303 fold
2. B1  124 fold
3. B2  103 fold
4. B4  8 fold
